Results as given in paper PMC9946822.

The sequences below were run against MtAHL1 (Medicago truncatula) (UniProt G7JGG2) (assay: EMSA). Conditions: EMSA as in Chen (ref. 37), 10 ng probe and 200 ng protein (titration 0-300 ng), SYBR Gold stain; binding buffer, pH and temperature not stated; protein eluted ….
Chain of MtAHL1 (Medicago truncatula) (G7JGG2 entry or part of it): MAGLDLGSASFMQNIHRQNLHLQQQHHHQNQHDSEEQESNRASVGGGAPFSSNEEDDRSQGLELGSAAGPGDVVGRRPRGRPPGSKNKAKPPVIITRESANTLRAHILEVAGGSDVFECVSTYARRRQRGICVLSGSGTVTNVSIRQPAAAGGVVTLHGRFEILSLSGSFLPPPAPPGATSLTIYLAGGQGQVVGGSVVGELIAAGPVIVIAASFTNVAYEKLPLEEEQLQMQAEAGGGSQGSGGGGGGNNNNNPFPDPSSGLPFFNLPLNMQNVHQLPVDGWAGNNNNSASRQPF

Row | Sequence | binding
1 | GTTAAACAATAATGAGCTCTATTTATAAGTAATAATTTTATGATTTGTATAAAAGAAAGTAATAATTTTGAGACATCTATTCTATGAGCCAAAGAGACAAC (double strand) [probe F] | binds more weakly
2 | CTTTCTTTTATACAAATCATAAAATTATTACTTATAAATAGAGCTCATTATTGTTTAACAACCTTTCATTATTATTTTTTATTTCTTAGCCAGCCTTTCATAATAGAG (double strand) [probe B] | binds more weakly
3 | GTTTAACAACCTTTCATTATTATTTTTTATTTCTTAGCCAGCCTTTCATAATAGAGATAGGAAAACCAATATTATATTATGTTGATATGAGTGGGTGTGGAATCA (double strand) [probe E] | binds more weakly
4 | GACAACTACGATACATCAACGTATTAAAGAGACATTTAATAATTATTTTAATTTTCAAAAAGTATTAATTACAACAACATAATTATTAAAAACTGTTTTGTTGATGTAAACATATC (double strand) [probe G] | binds
5 | CCCATTGTTTTTCCCCTTTGCGTGAAATAAGTGTAAAATTATTTTATCACTTTATATAGTAAAAAATCAAATGATATGTTTACATCAACAAAACAGTTTTTAATAATTATGTTGTTGTAATTAATAC (double strand) [probe D] | binds more weakly
6 | GAGATAGGAAAACCAATATTATATTATGTTGATATGAGTGGGTGTGGAATCACACAACGTGAATAAGGTCTCTTGTTTGAGTCTTGTGGTTAAATAAAACGTG (double strand) [probe A] | binds more weakly
7 | GAAAGTAATAATTTTGAGACATCTATTCTATGAGCCAAAGAGACAACTACGATACATCAACGTATTAAAGAGACATTTAATAATTATTTTAATTTTCAAAAAGTATTAATTAC (double strand) [probe C] | binds
